# Patent US20030211979A1, “FAP-activated anti-tumor compounds” (Boehringer Ingelheim Pharma GmbH & Co. KG, priority 2002, published 2003)
# Tested on: not listed separately
# Experiment: Solubility test in a phosphate buffer
# Format: physicochemical
# Conditions: not given
# Description: The solubilities of the compounds of formula
# in a phosphate buffer have been compared.
row,Compound,solubility [mg/mL]
1,"COc1cccc2c1C(=O)c1c(O)c3c(c(O)c1C2=O)C[C@@](O)(C(=O)CO)C[C@@H]3OC1CC(NC(=O)[C@@H]2CCCN2C(=O)CNC(=O)[C@H](C)NC(=O)[C@@H]2CCCN2C(=O)Cc2ccccc2)C(O)C(C)O1 (some centres unmarked) [B, reference compound]",< 2

# Biological target: T1, FAP (Homo sapiens, UniProt Q12884)
# T1 construct: expressed in transfected cells; host or cells: 293 cells stably transfected with FAP; cell extract
# T1 sequence (Q12884 1-760): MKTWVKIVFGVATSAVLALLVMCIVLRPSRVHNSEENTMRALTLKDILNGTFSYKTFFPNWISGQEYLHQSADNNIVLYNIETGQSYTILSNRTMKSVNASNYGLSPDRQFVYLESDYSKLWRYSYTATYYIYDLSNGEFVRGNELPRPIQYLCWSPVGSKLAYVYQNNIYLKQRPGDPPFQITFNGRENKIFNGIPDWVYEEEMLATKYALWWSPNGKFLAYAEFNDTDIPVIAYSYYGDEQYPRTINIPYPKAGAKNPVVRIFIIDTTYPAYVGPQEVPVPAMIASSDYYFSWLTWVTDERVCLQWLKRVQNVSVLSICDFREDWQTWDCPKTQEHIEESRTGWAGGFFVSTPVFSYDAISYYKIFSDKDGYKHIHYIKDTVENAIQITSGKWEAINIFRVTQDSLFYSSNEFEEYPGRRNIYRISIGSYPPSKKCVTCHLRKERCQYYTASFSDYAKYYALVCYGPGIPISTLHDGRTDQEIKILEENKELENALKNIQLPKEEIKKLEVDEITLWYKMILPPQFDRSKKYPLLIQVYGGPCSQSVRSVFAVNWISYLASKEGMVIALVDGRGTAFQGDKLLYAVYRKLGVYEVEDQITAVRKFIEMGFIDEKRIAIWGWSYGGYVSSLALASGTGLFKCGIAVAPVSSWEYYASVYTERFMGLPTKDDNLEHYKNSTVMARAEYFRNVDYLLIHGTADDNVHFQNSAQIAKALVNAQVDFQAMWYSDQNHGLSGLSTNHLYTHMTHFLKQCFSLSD
# Experiment: Assay for cleavage of MNA substrates by FAP
# Format: biochemical
# Conditions: 1 ng FAP enzyme (extract of FAP-transfected 293 cells), 20 μl 2.5 mM substrate, 1 hour at room temperature, fluorescence Ex 355/Em 405 nm, FAP-negative 293 control subtracted
# Protocol: Assay for Cleavage of MNA Substrates by FAP: Buffer A: 100 mM Tris HCl pH 7.8, 100 mM NaCl Cell extract from 293 cells stably transfected with FAP prepared as described (see Park, et al., Fibroblast Activation Protein, a Dual Specificity Serine Protease expressed in human tumor stromal fibroblasts. (1999) J. Biol. Chem. 36505-12.). A similar extract was also prepared from parental 293 control cells without FAP. The FAP concentration in the FAP-transfected cell extract was estimated by immunoassay and 1 ng enzyme (diluted in buffer A) was used per assay. FAP-negative 293 control cell extract was used at the same dilution (also in buffer A) as a negative control. Substrate was initially dissolved in dimethylformamide at a concentration of 200 mM and diluted in buffer A to a final concentration of 2.5 mM. A few substrates were not soluble at this concentration and had to be diluted further. Assay Conditions: 10 μl 10% DMSO in buffer A 70 μl diluted FAP cell extract containing 1 ng FAP enzyme (OR control 293 cell extract without FAP) 20 μl 2.5 mM substrate Mix, incubate at room temperature for 1 hour, and measure fluorescence in Fluorostar fluorimeter at the following wavelengths: MNA conjugates: Excitation: 355 nm, Emission: 405 nm. The fluorescence measured in the samples treated with control 293 control cell extracts without FAP is subtracted from the values measured in the samples treated with 1 ng FAP enzyme.
row,Compound,Cleavage [µM]
1,[2-(2-Carboxymethyl-phenyl)-acetyl]-Pro-Ala-Gly-Pro-MNA (PAGP; N-terminal 2-carboxymethylphenylacetyl; C-terminal MNA; printed: Pro-Ala-Gly-Pro-),0.94
2,"[2-(3-Carboxymethyl-phenyl)-acetyl]-N-MeIle-Ala-Gly-Pro-MNA (IAGP; N-terminal 3-carboxymethylphenylacetyl, N-methyl; C-terminal MNA; printed: Ile-Ala-Gly-Pro-)",15.36
3,"[2-(3-Carboxymethyl-phenyl)-acetyl]-N-MeLeu-Ala-Gly-Pro-MNA (LAGP; N-terminal 3-carboxymethylphenylacetyl, N-methyl; C-terminal MNA; printed: Leu-Ala-Gly-Pro-)",12.00
4,"[2-(3-Carboxymethyl-phenyl)-acetyl]-N-MeVal-Ala-Gly-Pro-MNA (VAGP; N-terminal 3-carboxymethylphenylacetyl, N-methyl; C-terminal MNA; printed: Val-Ala-Gly-Pro-)",9.52
5,[2-(3-Carboxymethyl-phenyl)-acetyl]-Pro-Ala-Gly-Pro-MNA (PAGP; N-terminal 3-carboxymethylphenylacetyl; C-terminal MNA; printed: Pro-Ala-Gly-Pro-),2.80
6,[2-(4-Carboxymethyl-phenyl)-acetyl]-Aze-Ala-Gly-Pro-MNA,9.54
7,"[2-(4-Carboxymethyl-phenyl)-acetyl]-N-MeIle-Ala-Gly-Pro-MNA (IAGP; N-terminal 4-carboxymethylphenylacetyl, N-methyl; C-terminal MNA; printed: Ile-Ala-Gly-Pro-)",16.36
8,"[2-(4-Carboxymethyl-phenyl)-acetyl]-N-MeLeu-Ala-Gly-Pro-MNA (LAGP; N-terminal 4-carboxymethylphenylacetyl, N-methyl; C-terminal MNA; printed: Leu-Ala-Gly-Pro-)",13.97
9,"[2-(4-Carboxymethyl-phenyl)-acetyl]-N-MeVal-Ala-Gly-Pro-MNA (VAGP; N-terminal 4-carboxymethylphenylacetyl, N-methyl; C-terminal MNA; printed: Val-Ala-Gly-Pro-)",13.39
10,[2-(4-Carboxymethyl-phenyl)-acetyl]-Pro-Ala-Gly-Pro-MNA (PAGP; N-terminal 4-carboxymethylphenylacetyl; C-terminal MNA; printed: Pro-Ala-Gly-Pro-),7.25
